Laboratory results published in patent US20180128830A1, “DETECTION OF HUMAN CYTOMEGALOVIRUS IN BREAST CANCER” (priority 2015, published 2018).

Key:
Assay type in all cases: cell-based, human
[1] = tested on: MDA-MB-231 cells; experiment: Standard cell counts (hemacytometer); conditions: 100 ng/ml, 6-well dishes
Protocol: (§1) Cells were seeded into 96-well dishes at a density of 1×10^4 cell per well in complete medium with varying doses of cmvIL-10, and then cell viability measured at the indicated time points using the Cell Titer Glo Assay kit according to manufacturer's instructions (Promega). DNA synthesis was measured in cells prepared in the same way using the BrdU Cell Proliferation ELISA Kit (Roche, Basel, Switzerland). For experiments using inhibitors, cells were cultivated in 96-well dishes as above with a final concentration of 10 μM inhibitor and BrdU incorporation evaluated after 72 hrs. For cell counts, cells were seeded into 6-well plates at a density of 2×10^5 cells per well, harvested via trypsinization, and counted using a hemacytometer at the indicated time points. The TACS Annexin V-FITC Detection Kit (Trevigen, Gaithersburg, Md.) was used to stain cells harvested from 70% confluent T75 flasks that had been treated with 100 μM etoposide for 48 hrs in the presence or absence of 100 ng/ml cmvIL-10. Cells were then analyzed via flow cytometry to detect fluorescence. For viability assays, Cell Titer Glo reagent was utilized to quantify cells that had been seeded into 96-well dishes at a density of 1×10^4 cell per well in complete medium with varying doses of etoposide in the presence or absence of 100 ng/ml cmvIL-10 as indicated

[2] = tested on: PAI-1; experiment: PAI-1 ELISA on culture supernatants; conditions: 10 ng/ml; for PAI-1 production: after 24 hours, maintained over 72 hours
Protocol: DuoSet ELISA kits (R&D Systems) were used to quantify uPAR, PAI-1, and MMP-3. For uPAR and PAI-1 measurement, MDA cells were seeded in triplicate in 96-well plate at 5.0×10^4 cell/mL density with complete L-15 media and treated with 10 ng/mL of either cmvIL-10 or hIL-10 for the indicated times and supernatants were collected daily. The ELISA was carried out on supernatants according to manufacturer's instructions using and following the addition of substrate and stop solution, absorbance of the plate was measured at 450 nm using a Dynex Opsys MR microplate reader. Sample concentrations were interpolated from a standard curve using linear regression analysis. For cell-associated MMP-3, MDA cells were seeded in 96-well plates and treated with cmvIL-10 as above. Cells were treated with cell lysis buffer (150 mM NaCl, 20 mM HEPES, 0.5% Triton-X-100, 1.0 mM NaOV4, 1.0 mM EDTA, 0.1% NaN3) supplemented with 1× protease inhibitors (Calbiochem, EMD Chemicals, San Diego Calif.) and were collected daily for the indicated time points. The lysates were evaluated for MMP-3 according to the manufacturer's instructions (R&D Systems).

[3] = tested on: MDA-MB-231 cells; experiment: Migration assay toward EGF (modified Boyden chamber); conditions: 5 hrs; for cell movement toward cytokine alone: no EGF
Protocol: Cells were harvested and resuspended at a density of 2×10^6 cells per ml in complete medium. A total volume of 0.1 ml cell suspension (2×10^5 cells) was placed in the upper chamber of a ThinCert filter with 8 μm pores in a 24-well plate (Greiner Bio-One North America, Monroe, Calif.). […] Medium from the lower chamber was collected, used to rinse the bottom of the filter twice, and then centrifuged at 1000 rpm for 10 min. The cell pellet was resuspended in 0.1 ml media and transferred to a white 96-well plate. Viable cell number was quantified using the Cell Titer Glo Assay kit according to the manufacturer's protocol.

[4] = tested on: MDA-MB-231 cells; experiment: DNA synthesis, BrdU Cell Proliferation ELISA; conditions: 100 ng/ml, vs control
Protocol: as §1

[5] = tested on: MDA-MB-231 cells; experiment: Apoptosis, Annexin V-FITC flow cytometry; conditions: 100 ng/ml cmvIL-10 plus 100 μM etoposide, 48 hrs
Protocol: as §1

[6] = tested on: MDA-MB-231 cells; experiment: Cell proliferation, Cell Titer Glo
Protocol: as §1

[7] = tested on: MDA-MB-231 cells; experiment: Matrigel invasion toward EGF; conditions: 100 ng/ml, 22 hours
Protocol: Transwell migration was monitored using 96-well BD Fluoroblock plates with 8 μm filters (Corning, Inc., Corning, N.Y.). Cells were harvested and suspended at density of 2.0×10^6 cells/ml in migration media (L-15+1% FBS), and a volume of 75 μl cell suspension was placed on top of the filter inserts. Where indicated, IL-10R neutralizing antibody was added at a concentration of 30 μg/ml. […] After 5 hrs at 37° C., cells that traversed the filter and entered the lower chamber were quantified by the addition of Cell Titer Glo (Promega, Madison, Wis.) using a Turner Veritas luminometer. For invasion, 96-well matrigel-coated BD Fluoroblock transwell invasion plates (Corning) were used. Invasion plates were re-hydrated with warm media at 37° C. for 3 hrs and then 75 μl cell suspension loaded onto the hydrated filters as described above. Where indicated, 10 μM Stat3 inhibitor was included with cells in the top chamber; cmvIL-10, hIL-10 or conditioned medium was present in both chambers. […] At harvest, cells that had degraded the matrigel and entered the lower chamber were quantified by the addition of Cell Titer Glo as above.

[8] = tested on: MTSS1; experiment: MTSS1 immunofluorescence microscopy; conditions: 100 ng/mL, 96 hrs
Protocol: MDA-MB-231 cells were seeded onto FBS-coated glass coverslips at a density of 2.0×10^5 cells/well and cultured for 48 hrs at 37° C. Cells were treated with 100 ng/mL of purified recombinant cmvIL-10 for 96 hrs, then fixed with 2% paraformaldehyde in DPBS for 20 min, washed, permeabilized with 0.2% Triton-X-100 in PBS for 15 min. The cells were washed and blocked with 10% FBS for 1 hr at 37° C., then incubated with anti-MTSS-1 antibody at a 1:100 dilution for 1 hr at 37° C. followed by the addition of goat anti-mouse TRITC secondary antibody at a 1:150 dilution for 30 min (Life Technologies) and Alexa Fluor 488 phalloidin (Molecular Probes, Eugene, Oreg.). Coverslips were washed and excess fluid was removed before inverting the coverslip onto a glass slide containing 20 μL of DAPI-containing Prolong Gold mounting medium (Life Technologies, Grand Island, N.Y.). Images were taken on a Zeiss AX10 Imager.A1 microscope (Carl Zeiss Inc., Oberkochen, Germany) using AxioVision 4.7.2 imaging software.

## hIL-10: purified recombinant human interleukin-10 from R&D Systems
[1]
  cell numbers: higher cell numbers than control cultures
[2]
  PAI-1 production: significant increase in PAI-1 production
[3]
  cell movement toward cytokine alone: failed to stimulate cell movement

B1: cmvIL-10 (protein)
chain: ATTTTIKNTKPQCRPEDYATRLQDLRVTFHRVKPTLQREDDYSVWLDGTVVKGCWGCSVMDWLLRRYLEIVFPAGDHVYPGLKTELHSMRSTLESIYKDMRQCPLLGCGDKSVISRLSQEAERKSDNGTRKGLSELDTLFSRLEEYLHSRK
[4]
  rate of DNA synthesis (BrdU incorporation): significantly higher
[5]
  cells stained positive for Annexin V: 14.8%
[1]
  cell numbers: higher cell numbers than control cultures
[6]; 100 ng/ml, 72 hrs
  cell growth (cell viability, RLU): significantly higher cell growth than control cultures
[6]; increasing doses of cmvIL-10
  cell growth (cell viability, RLU): greater growth than control cells
[2]; 12 hours
  PAI-1 protein secreted: significantly increased
[2]
  PAI-1 production: significant increase in PAI-1 production
[7]
  invasion through matrigel compared with hIL-10: significantly greater extent than hIL-10
  invasion through matrigel toward EGF: strong enhancer of cell invasion
[3]; 100 ng/ml cytokine plus EGF
  migration response toward EGF with cytokine in lower chamber: significantly increased
[3]
  cell movement toward cytokine alone: did not stimulate cell movement
[8]
  MTSS1 protein (immunofluorescence): dramatic reduction in the amount of MTSS1 protein
